Laboratory results as given in patent publication US20240409629A1 (CHIA TAI TIANQING PHARMACEUTICAL GROUP, published 2024).
Positions count from the first letter of the chain named.

B1: humanized antibody hz28G3-1.3 (antibody, human IgG1, kappa, V domains shown)
VH: QVQLVQSGAEVKKPGASVKVSCKTSGYSFTDYLMLWVRQAHGQSLEWMGNINPYYGRTTYALKFKGRVTMTVDRSTSTVYMELSSLRSEDTAVYYCARDGYSLRNAMDYWGQGTLVTVSS
VL: DIVMTQSPDSLAVSLGERATINCKSSQSLFNSGNQKNYLAWYQQKPGQPPKLLIYGASTRESGVPDRFSGSGSGTDFTLTISSLQAEDVAVYYCQNAHSYPYTFGQGTKVEIKR
B2: humanized antibody hz40F6-1.3 (antibody, human IgG1, kappa, V domains shown)
VH: QVQLVESGGGVVQPGRSLRLSCAASGFTLTSYGVYWVRQAPGKGLEWVAVVWAGGNTNYADALKGRFTISKDNSKSTLYLQMNSLRAEDTAVYYCARDRGRLLAMDYWGQGTLVTVSS
VL: B1 VL with F30L, S69T, A97D, S99F, Y100F, Y102F
B3: humanized antibody hz40F6-2.3 (antibody, human IgG1, kappa, V domains shown)
VH: B2 VH
VL: B1 VL with F30L, A97D, H98Y, S99F, Y100F, Y102F
B4: humanized antibody hz40F6-2.1 (antibody, human IgG1, kappa, V domains shown)
VH: B2 VH with A62S, L63V
VL: B1 VL with F30L, A97D, H98Y, S99F, Y100F, Y102F
B5: humanized antibody hz40F6-2.4 (antibody, human IgG1, kappa, V domains shown)
VH: B2 VH with A23T, A24V, A60N, D61S
VL: B1 VL with F30L, A97D, H98Y, S99F, Y100F, Y102F
B6: humanized antibody hz40F6-2.2 (antibody, human IgG1, kappa, V domains shown)
VH: B2 VH with A60N, D61S, K64M, G65S
VL: B1 VL with F30L, A97D, H98Y, S99F, Y100F, Y102F
B7: humanized antibody hz40F6-1.4 (antibody, human IgG1, kappa, V domains shown)
VH: B2 VH with A23T, A24V, A60N, D61S
VL: B1 VL with F30L, S69T, A97D, S99F, Y100F, Y102F
B8: humanized antibody hz40F6-1.1 (antibody, human IgG1, kappa, V domains shown)
VH: B2 VH with A62S, L63V
VL: B1 VL with F30L, S69T, A97D, S99F, Y100F, Y102F
B9: humanized antibody hz40F6-1.2 (antibody, human IgG1, kappa, V domains shown)
VH: B2 VH with A60N, D61S, K64M, G65S
VL: B1 VL with F30L, S69T, A97D, S99F, Y100F, Y102F

Biological target: human CLDN18.2 (human)
Experiment: cell-based or functional assay

How did the “ADCC EC50, Jurkat-CD16a v158-NFAT-luciferase effector cells, KATOIII target cells” value turn out when B1 was run?
Its value is 0.217 nM.

What about the “ADCC EC50, Jurkat-CD16a v158-NFAT-luciferase effector cells, U2OS-CLDN18.2 target cells” value of the same binder?
The value was 0.023 nM.

Biological target: human CLDN18.2 (human)
Experiment: cell-based or functional assay
Remark: another data set of the same source

With B2 as the binder, how does the “ADCC EC50, Jurkat-CD16a v158-NFAT-luciferase effector cells, NIH-3T3-CLDN18.2 target cells” value read?
Its value is 0.017 nM.

What about the “ADCC EC50, Jurkat-CD16a v158-NFAT-luciferase effector cells, NUGC-4 target cells” value of the same binder?
Its value is 0.023 nM.

How did the “ADCC EC50, Jurkat-CD16a v158-NFAT-luciferase effector cells, NIH-3T3-CLDN18.2 target cells” value turn out when B3 was run?
The value was 0.014 nM.

What about the “ADCC EC50, Jurkat-CD16a v158-NFAT-luciferase effector cells, NUGC-4 target cells” value of the same binder?
The value was 0.028 nM.

B4 was tested. Which “ADCC EC50, Jurkat-CD16a v158-NFAT-luciferase effector cells, NIH-3T3-CLDN18.2 target cells” value did it give?
The value was 0.012 nM.

What about the “ADCC EC50, Jurkat-CD16a v158-NFAT-luciferase effector cells, NUGC-4 target cells” value of the same binder?
The value was 0.149 nM.

B5 was tested. Which “ADCC EC50, Jurkat-CD16a v158-NFAT-luciferase effector cells, NIH-3T3-CLDN18.2 target cells” value did it give?
Its value is 0.014 nM.

And the “ADCC EC50, Jurkat-CD16a v158-NFAT-luciferase effector cells, NUGC-4 target cells” value?
The value was 0.03 nM.

How did the “ADCC EC50, Jurkat-CD16a v158-NFAT-luciferase effector cells, NIH-3T3-CLDN18.2 target cells” value turn out when B6 was run?
The value was 0.01 nM.

And the “ADCC EC50, Jurkat-CD16a v158-NFAT-luciferase effector cells, NUGC-4 target cells” value?
The value was 0.019 nM.

How did the “ADCC EC50, Jurkat-CD16a v158-NFAT-luciferase effector cells, NIH-3T3-CLDN18.2 target cells” value turn out when B7 was run?
Its value is 0.024 nM.

What about the “ADCC EC50, Jurkat-CD16a v158-NFAT-luciferase effector cells, NUGC-4 target cells” value of the same binder?
The value was 0.017 nM.

For B8, which “ADCC EC50, Jurkat-CD16a v158-NFAT-luciferase effector cells, NIH-3T3-CLDN18.2 target cells” value is on record?
Its value is 0.013 nM.

What about the “ADCC EC50, Jurkat-CD16a v158-NFAT-luciferase effector cells, NUGC-4 target cells” value of the same binder?
Its value is 0.045 nM.

What does the source list for B9?
ADCC EC50, Jurkat-CD16a v158-NFAT-luciferase effector cells, NIH-3T3-CLDN18.2 target cells: 0.03 nM; ADCC EC50, Jurkat-CD16a v158-NFAT-luciferase effector cells, NUGC-4 target cells: 0.019 nM

Biological target: human CLDN18.2 (human)
Experiment: cell-based or functional assay
Remark: another data set of the same source

Which “ADCC EC50, PBMC effector cells, KATOIII target cells” value does the source give for B1 here?
The value was 1.03 nM.

What about the “ADCC EC50, PBMC effector cells, NIH-3T3-CLDN18.2 target cells” value of the same binder?
The value was 0.51 nM.

And the “ADCC EC50, PBMC effector cells, NUGC-4 target cells” value?
Its value is 4.6 nM.

And the “ADCC Maximum killing (%), PBMC effector cells, KATOIII target cells” value?
The value was 25.3%.

And the “ADCC Maximum killing (%), PBMC effector cells, NIH-3T3-CLDN18.2 target cells” value?
The value was 44.3%.

What about the “ADCC Maximum killing (%), PBMC effector cells, NUGC-4 target cells” value of the same binder?
The value was 19%.

B7 was tested. Which “ADCC EC50, PBMC effector cells, KATOIII target cells” value did it give?
The value was 0.1 nM.

And the “ADCC EC50, PBMC effector cells, NIH-3T3-CLDN18.2 target cells” value?
The value was 0.31 nM.

What about the “ADCC EC50, PBMC effector cells, NUGC-4 target cells” value of the same binder?
Its value is 0.12 nM.

And the “ADCC Maximum killing (%), PBMC effector cells, KATOIII target cells” value?
Its value is 13.3%.

And the “ADCC Maximum killing (%), PBMC effector cells, NIH-3T3-CLDN18.2 target cells” value?
Its value is 24.6%.

What about the “ADCC Maximum killing (%), PBMC effector cells, NUGC-4 target cells” value of the same binder?
Its value is 2.83%.

Biological target: human CLDN18.2 (human)
Experiment: cell-based or functional assay
Remark: another data set of the same source

How did the “CDC EC50, NIH-3T3-CLDN18.2 target cells” value turn out when B1 was run?
The value was 0.31 nM.

Biological target: human CLDN18.2 (human)
Experiment: cell-based or functional assay
Remark: another data set of the same source

B2 was tested. Which “CDC EC50, NIH-3T3-CLDN18.2 target cells” value did it give?
The value was 0.84 nM.

With B3 as the binder, how does the “CDC EC50, NIH-3T3-CLDN18.2 target cells” value read?
Its value is 0.9 nM.

With B4 as the binder, how does the “CDC EC50, NIH-3T3-CLDN18.2 target cells” value read?
Its value is 3.8 nM.

B5 was tested. Which “CDC EC50, NIH-3T3-CLDN18.2 target cells” value did it give?
The value was 0.89 nM.

B6 was tested. Which “CDC EC50, NIH-3T3-CLDN18.2 target cells” value did it give?
The value was 0.53 nM.

With B7 as the binder, how does the “CDC EC50, NIH-3T3-CLDN18.2 target cells” value read?
Its value is 0.55 nM.

B8 was tested. Which “CDC EC50, NIH-3T3-CLDN18.2 target cells” value did it give?
Its value is 1.47 nM.

Which “CDC EC50, NIH-3T3-CLDN18.2 target cells” value does the source give for B9 here?
The value was 0.54 nM.

Biological target: T1, human CLDN18.2 (human)
T1 construct: also called claudin18.2
Experiment: FACS, NUGC-4 cells (natural CLDN18.2)
Procedure: (§1) Based on the FACS method, the binding activity of anti-CLDN18.2 humanized antibodies for the cell lines KATOIII (Cell Bank of the Chinese Academy of Sciences) and NUGC-4 (Cell Bank of the Chinese Academy of Sciences) naturally expressing CLDN18.2 was analyzed. […] See Example 3 for the specific method.

B1 was tested. Which EC50 did it give?
The EC50 was 10.5 nM.

Biological target: T1, human CLDN18.2
Experiment: FACS, NUGC-4 cells (natural CLDN18.2)
Remark: another data set of the same source
Procedure: as §1

Which EC50 does the source give for B2 here?
The EC50 was 17.7 nM.

Which EC50 does the source give for B3 here?
The EC50 was 16.2 nM.

B4 was tested. Which EC50 did it give?
Its EC50 is 18.7 nM.

B5 was tested. Which EC50 did it give?
Its EC50 is 13.3 nM.

Which EC50 does the source give for B6 here?
The EC50 was 14.9 nM.

Which EC50 does the source give for B7 here?
The EC50 was 10.6 nM.

B8 was tested. Which EC50 did it give?
Its EC50 is 20 nM.

How did the EC50 turn out when B9 was run?
The EC50 was 16 nM.

Biological target: T1, human CLDN18.2
Experiment: FACS, KATOIII cells (natural CLDN18.2)
Procedure: as §1

For B1, which EC50 is on record?
Its EC50 is 7.01 nM.

Biological target: T1, human CLDN18.2
Experiment: FACS, KATOIII cells (natural CLDN18.2)
Remark: another data set of the same source
Procedure: as §1

Which EC50 does the source give for B2 here?
Its EC50 is 7.9 nM.

For B3, which EC50 is on record?
Its EC50 is 6.13 nM.

B4 was tested. Which EC50 did it give?
The EC50 was 8.77 nM.

With B5 as the binder, how does the EC50 read?
Its EC50 is 6.38 nM.

For B6, which EC50 is on record?
Its EC50 is 7.54 nM.

With B7 as the binder, how does the EC50 read?
Its EC50 is 6.44 nM.

How did the EC50 turn out when B8 was run?
The EC50 was 8.24 nM.

B9 was tested. Which EC50 did it give?
The EC50 was 7.42 nM.
